# Source: publication PMC5544124 (Methods in enzymology, 2015)
# B1: human apo-SUN2 (residues 522-717) (domain or fragment, UniProt Q9UH99 522-717, looked up)
# chain: GVTEEQVHHIVKQALQRYSEDRIGLADYALESGGASVISTRCSETYETKTALLSLFGIPLWYHSQSPRVILQPDVHPGNCWAFQGPQGFAVVRLSARIRPTAVTLEHVPKALSPNSTISSAPKDFAIFGFDEDLQQEGTLLGKFTYDQDGEPIQTFHFQAPTMATYQVVELRILTNWGHPEYTCIYRFRVHGEPAH
# Columns and labels:
# SEC = biological target: the molecule itself; experiment: SEC
# [1] = biological target: B1; experiment: SEC
binding result [1],Binder,stoichiometry N (SEC)
–,B1,3
binds,"TQANNFARSFYPMLRYTNGPPPT (peptide, UniProt Q8WXH0 6863-6885, looked up) [6xHis-sfGFP-KASH2 polypeptide (KASH2 residues 6863-6885)]",–
